Measured values published in PMC5376648, “Cell-free reconstitution reveals centriole cartwheel assembly mechanisms” (Nature Communications, 2017).

What was measured:
[1] = biological target: the molecule itself; experiment: cryo-EM and cryo-electron tomography of assemblies formed in a cell-free assay; soluble protein alone (CrSAS-6_FL 10 uM or His-Stag-CrSAS-6_NL 20 uM in 20 mM Tris pH 7.5, 150 mM NaCl) dialysed >16 h against 10 mM K-PIPES pH 7.2; structures formed in solution vitrified and imaged
[2] = biological target: the molecule itself; experiment: negative staining EM of assemblies; CrSAS-6_NL diluted in 10 mM K-PIPES pH 7.0 to 3 ug/ml, deposited on carbon-coated grids, stained with 2% uranyl acetate

B1: full-length CrSAS-6 (HisCrSAS-6_FL) (natural protein, Chlamydomonas reinhardtii, UniProt A9CQL4 1-728, looked up)
chain: MPLLLDDGDPKAQTGFDLSTATTLFWRPVPVHVKQQDREDVLEELTFRILTGVAKQNHNLRILRIHISSDSDLFFLHTLEVSEEDFQSLKNDQGILVDFASFPGKIISLLEKCILAQPGDSPRFQAVLTIRGGESVFKIVEINDFKQLPHITLAFRPGNDSVVKQFLAFRLSEVKGTCHDLSDDLSRTRDDRDSMVAQLAQCRQQLAQLREQYDKHLLEVQAQAKTQQASAHEERIREKSQLKDQFEKERGEMEGRYRDQIAALNTRLGELDTENRKLREVKYELDTKVSELSHKLGSSEGSNRSLEEETARLRSLNQQLSSSKHELEIQLNEAKAKVLALDEKAQSQGDVIEQQRGRLRDMEAALRQTEQRCADLRDTLASAEGRAKEAQAEVLKGNQAIEKLTNDLRLAKEKTKRKAAIILRQEEELQEREQSLANATRDVGVLGQQAESLRKDVASLHSENDSLRSKLEDSKQQLQSNEQMIRWLNQQVTEAQLHASGATVAGSRYAFRPSAALPGSMPPPSVAATPAVGLLAAPGPSTAYKPGGTTSRYASTLGVTGLSSGLSGAGATSVGAAVAGGSYGAGGDSSYRPGVGGAYASSGGAGGFGGSVGGGGQVGGSGSAIGAATGAGSALGTYRSSYAASTHPSPGGVTAGMGSTLTTPAVNRYAAGSYSSVSSSLSFGGGLGAARAVDATPAASKYGVGFSNAAMGVVGTVGGAGGTDAQRA
notes: SAS-6 protein Bld12p (CrSAS-6) of Chlamydomonas reinhardtii, full length; A 6xHis tag stands between the Prescission site and CrSAS-6 and remains after cleavage; also called Bld12p; GST-HisCrSAS-6_FL (before cleavage); source: E. coli BL21(DE3), purified (glutathione agarose beads, eluted with Prescission Protease to remove GST); not shown: GST, N-terminal, cleaved; His6, N-terminal, kept
[1]
  binding result: binds

B2: His-Stag-CrSAS-6_NL(1-503) (domain or fragment, Chlamydomonas reinhardtii, UniProt A9CQL4 1-503, looked up)
chain: MPLLLDDGDPKAQTGFDLSTATTLFWRPVPVHVKQQDREDVLEELTFRILTGVAKQNHNLRILRIHISSDSDLFFLHTLEVSEEDFQSLKNDQGILVDFASFPGKIISLLEKCILAQPGDSPRFQAVLTIRGGESVFKIVEINDFKQLPHITLAFRPGNDSVVKQFLAFRLSEVKGTCHDLSDDLSRTRDDRDSMVAQLAQCRQQLAQLREQYDKHLLEVQAQAKTQQASAHEERIREKSQLKDQFEKERGEMEGRYRDQIAALNTRLGELDTENRKLREVKYELDTKVSELSHKLGSSEGSNRSLEEETARLRSLNQQLSSSKHELEIQLNEAKAKVLALDEKAQSQGDVIEQQRGRLRDMEAALRQTEQRCADLRDTLASAEGRAKEAQAEVLKGNQAIEKLTNDLRLAKEKTKRKAAIILRQEEELQEREQSLANATRDVGVLGQQAESLRKDVASLHSENDSLRSKLEDSKQQLQSNEQMIRWLNQQVTEAQLHASGAT
notes: CrSAS-6 (Bld12p) of Chlamydomonas reinhardtii, residues 1-503; C-terminal truncation that keeps the N-terminal domain and the entire coiled coil; This form was used for cryo-EM and cryo-ET; source: E. coli BL21(DE3), purified (Ni-NTA, size exclusion chromatography)
[1]
  binding result: binds

B3: CrSAS-6_NL(1-503), 6xHis tag cleaved (domain or fragment, Chlamydomonas reinhardtii, UniProt A9CQL4 1-503, looked up)
chain: B2 chain
notes: CrSAS-6 (Bld12p) of Chlamydomonas reinhardtii, residues 1-503; This form was used for negative staining EM; also called 6xHis-CrSAS-6_NL(1-503) (before cleavage)
[2]
  binding result: binds
